The nature of this data set: soluble on expression in E. coli; label from the status in PepcDB or PDB records.
For “AAAAAAMTMMDMNFKYCHKIMKKHSKSFSYAFDLLPEDQRKAVWAIYAVCRKIDDSIDVYGDIQFLNQIKEDIQSIEKYPYEYHHFQSDRRIMMALQHVAQHKNIAFQSFYNLIDTVYKDQHFTMFETDAELFGYCYGVAGTVGEVLTPILSDHETHQTYDVARRLGESLQLINILRDVGEDFENERIYFSKQRLKQYEVDIAEVYQNGVNNHYIDLWEYYAAIAEKDFRDVMDQIKVFSIEAQPIIELAARIYIEILDEVRQANYTLHERVFVEKRKKAKLFHEINSKYHRI”, the “soluble on expression in E. coli” value is “soluble”.

With “AADITVASYNIHKGVGTDRRRDLRRTAAVIAELDADLVALQEADRRFGDRAGLLDLEHLKDETGLVPVKVEGRGRAHGWHGNLLLVRDAEVEEVQKIVLPSFEPRGALMIDMMIRGRPLRVIAAHLGLLPASRAAQTRHLLERIEASTPRPTLLMGDLNEWRGTGAAMGHLARHFTGGVMVRSFPSRFPILALDRLMTCKHGQLHDVSTHDTPLARRASDHLPIKARLHLP”, the “soluble on expression in E. coli” value was “not soluble”. For “AALPDSVDWREKGCVTEVKYQGSCGASWAFSAVGALEAQLKLKTGKLVSLSAQNLVDCSTEKYGNKGCNGGFMTTAFQYIIDNKGIDSDASYPYKAMDQKCQYDSKYRAATCSKYTELPYGREDVLKEAVANKGPVSVGVDARHPSFFLYRSGVYYEPSCTQNVNHGVLVVGYGDLNGKEYWLVKNSWGHNFGEEGYIRMARNKGNHCGIASFPSYPEILQG” the value was “soluble”; for “AARRALIVLAHSEKTSFNYAMKEAAVEALKKRGWEVLESDLYAMNFNPIISRNDITGELKDSKNFQYPSESSLAYKEGRLSPDIVAEHKKLEAADLVIFQFPLQWFGVPAILKGWFERVLVAGFAYTYAAMYDNGPFQNKKTLLSITTGGSGSMYSLQGVHGDMNVILWPIQSGILRFCGFQVLEPQLVYSIGHTPPDARMQILEGWKKRLETVWEETPLYFAPSSLFDLNFQAGFLLMKEVQEEQKKNKFGLSVGHHLGKSIPADNQIKARK”, “soluble”; for “AASSLDELVALCKRRGFIFQSSEIYGGLQGVYDYGPLGVELKNNLKQAWWRRNVYERDDMEGLDASVLTHRLVLHYSGHEATFADPMVDNAKARYWTPPRYFNMMFQDLRGPRGGRGLLAYLRPETAQGIFVNFKNVLDATSRKLGFGIAQIGKAFRNEITPRNFIFRVREFEQMEIEYFVRPGEDEYWHRYWVEERLKWWQEMGLSRENLVPYQQPPESSAHYAKATVDILYRFPHGSLELEGIAQRTDFDLGSHTKDQEALGITARVLRNEHSTQRLAYRDPETGKWFVPYVIEPSAGVDRGVLALLAEAFTREELPNGEERIVLKLKPQLAPIKVAVIPLVKNRPEITEYAKRLKARLLALGLGRVLYEDTGNIGKAYRRHDEVGTPFAVTVDYDTIGQSKDGTTRLKDTVTVRDRDTMEQIRLHVDELEGFLRERLRW”, “soluble”. For “AAYEAELLGRVGLMSHLTRRLHESAKLNPHRVIYAACENPSVLKAAVSARAHGIARPIMLGDEKQIRDFAAELDLSLEGIEIVNYRSDEEKARRHHYARVFAEQNWRRGGNHTEALDKMFDPNYFGMMMVRLGDADAMITGIYSKHSYLAEVAKQTVGLQEGVGHFATMHMVSLKNGPLFLADTLINHNLSAEALVDIAVMAYEKAHCFGVKPVLAIVGFSDFGADSDADSTVEAAKAVAILHEKYPYILVDGEMRVSLALHAEKRDKQYPQNKIKGRNANVLIFPRLSAANACYQLLREADDAEEVLGPIQIGLAKPVYFADHDATVSDILNITAMAVLDSHACLI” the value was “soluble”; for “ADFDYVVVGAGNAGNVVAARLTEDPDVSVLVLEAGVSDENVLGAEAPLLAPGLVPNSIFDWNYTTTAQAGYNGRSIAYPRGRMLGGSSSVHYMVMMRGSTEDFDRYAAVTGDEGWNWDNIQQFVRKNEMVVPPADNHNTSGEFIPAVHGTNGSVSISLPGFPTPLDDRVLATTQEQSEEFFFNPDMGTGHPLGISWSIASVGNGQRSSSSTAYLRPAQSRPNLSVLINAQVTKLVNSGTTNGLPAFRCVEYAEQEGAPTTTVCAKKEVVLSAGSVGTPILLQLSGIGDENDLSSVGIDTIVNNPSVGRNLSDHLLLPAAFFVNSNQTFDNIFRDSSEFNVDLDQWTNTRTGPLTALIANHLAWLRLPSNSSIFQTFPDPAAGPNSAHWETIFSNQWFHPAIPRPDTGSFMSVTNALISPVARGDIKLATSNPFDKPLINPQYLSTEFDIFTMIQAVKSNLRFLSGQAWADFVIRPFDPRLRDPTDDAAIESYIRDNANTIFHPVGTASMSPRGASWGVVDPDLKVKGVDGLRIVDGSILPFAPNAHTQGPIYLVGKQGADLIKADQ”, “soluble”; for “ADKLRAACIRIQKTIRGWLLRKRYLCMQRAAITVQRYVRGYQARCYAKFLRRTKAATT”, “soluble”. For “ADTMTFTAKNGNVTFDHKKHQTIVPDCAVCHGKTPGKIEGFGKEMAHGKSCKGCHEEMKKGPTKCGECHKK” the value was “soluble”. For “ADTYAATRYPVILVHGLAGTDKFANVVDYWYGIQSDLQSHGAKVYVANLSGFQSDDGPNGRGEQLLAYVKQVLAATGATKVNLIGHSQGGLTSRYVAAVAPQLVASVTTIGTPHRGSEFADFVQDVLKTDPTGLSSTVIAAFVNVFGTLVSSSHNTDQDALAALRTLTTAQTATYNRNFPSAGLGAPGSCQTGAATETVGGSQHLLYSWGGTAIQPTSTVLGVTGATDTSTGTLDVANVTDPSTLALLATGAVMINRASGQNDGLVSRCSSLFGQVISTSYHWNHLDEINQLLGVRGANAEDPVAVIRTHVNRLKLQGV”, the “soluble on expression in E. coli” value is “soluble”. For “AEPDQAPELNEAQREAVDTIGALSAFQPVLLHGVTGSGKTEVYLHAAARVLQAGRQVLLMVPEINLTPQLEGALRARLEALVGPQGVAILHSGLADGERVQAWARAQRGQARLLLGTRMSIFAPLPELGLIVVDEEHDPSYKQQEGLRYSARDLAIWRARDLDIPVVLGSATP” the value was “not soluble”. For “AESLPDLKIEKLDEGVYVHTSFEEVNGWGVVPKHGLVVLVNAEAYLIDTPFTAKDTEKLVTWFVERGYKIKGSISSHFHSASTGGIEWLNSRSIPTYASELTNELLKKDGKVQATNSFSGVNYWLVKNKIEVFYPGPGHTPDNVVVWLPERKILFGGCFIKPYGLGNLGDANIEAWPKSAKLLKSKYGKAKLVVPSHSEVGDASLLKLTLEQAVKGLNESKKPSKPSN” the value was “soluble”; for “AESTLGAAAAQSGRYFGTAIASGKLGDSAYTTIASREFNMVTAENEMKIDATEPQRGQFNFSAGDRVYNWAVQNGKQVRGHTLAWHSQQPGWMQSLSGSTLRQAMIDHINGVMGHYKGKIAQWDVVSHAFSDDGSGGRRDSNLQRTGNDWIEVAFRTARAADPAAKLCYNDYNIENWTWAKTQGVYNMVRDFKQRGVPIDCVGFQSHFNSGSPYNSNFRTTLQNFAALGVDVAITELDIQGASSSTYAAVTNDCLAVSRCLGITVWGVRDTDSWRSGDTPLLFNGDGSKKAAYTAVLNALNGGSSTPPPSGGGQIKGVGSGRCLDVPNASTTDGTQVQLYDCHSATNQQWTYTDAGELRVYGDKCLDAAGTGNGTKVQIYSCWGGDNQKWRLNSDGSIVGVQSGLCLDAVGGGTANGTLIQLYSCSNGSNQRWTRT”, “soluble”. For “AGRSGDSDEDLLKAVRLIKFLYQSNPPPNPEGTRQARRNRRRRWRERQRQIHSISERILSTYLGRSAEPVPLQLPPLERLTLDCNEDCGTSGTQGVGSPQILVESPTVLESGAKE” the value was “soluble”; for “AGTKLSLMPWFHGKITREQAERLLYPPETGLFLVRESTNYPGDYTLCVSSDGKVEHYRIMYHASKLSIDEEVYFENLMQLVEHYTSDADGLCTRLIKPKVMEGTVA”, “soluble”. For the sequence “AHHHHHHGSAESPFKADIERAQKELSEKMTPGAIVYIPGSSVINKTGSWRVFKPEFNRDKCVRCYLCYIYCPEPAIYLDEEGYPVFDYDYCKGCGICANECPTKAIEMVREVK”, the “soluble on expression in E. coli” value was “not soluble”. Turning to “AHHHHHHGSETEEIEAPKKKVPLAMVTIRPAKLFDIPYIMRIEQMSFKEAYPRGLFLTFLEANPDTFLVAEYNGKIVGYVMGYLRPDMEGHIMSIAVHPDYRGNGIGKALMIAVIKKLFEKGARWIGLEVRVSNYRAINLYKKLGFKIVKRIISYYSDGEDAYYMILRPEDFERVILS”, the “soluble on expression in E. coli” value is on record as “not soluble”.
